Data as given in patent publication US5563039, “TNF receptor-associated intracellular signaling proteins and methods of use” (Tularik, Inc., dated 1996).

Tests used:
[1] = target: cytoplasmic domain of Fas antigen expressed as GAL4bd chimera (yeast, UniProt P04386); assay: yeast two-hybrid, strain SFY526
[2] = target: GST fusion protein containing the cytoplasmic domain of Fas antigen (Homo sapiens (Human), UniProt P25445); assay: GST pull-down of 35S-labeled TRADD

B1: GAL4ad-TRADD (GAL4 activation domain fused to full length TRADD) (other)
chain: MAAGQNGHEEWVGSAYLFVESSLDKVVLSDAYAHPQQKVAVYRALQAALAESGGSPDVLQMLKIHRSDPQLIVQLRFCGRQPCGRFLRAYREGALRAALQRSLAAALAQHSVPLQLELRAGAERLDALLADEERCLSCILAQQPDRLRDEELAELEDALRNLKCGSGARGGDGEVASAPLQPPVPSLSEVKPPPPPPPAQTFLFQGQPVVNRPLSLKDQQTFARSVGLKWRKVGRSLQRGCRALRDPALDSLAYEYEREGLYEQAFQLLRRFVQAEGRRATLQRLVEALEENELTSLAEDLLGLTDPNGGLA
B1: no binding [1].

B2: 35S-labeled TRADD prepared by in vitro transcription and translation (other)
chain: MAAGQNGHEEWVGSAYLFVESSLDKVVLSDAYAHPQQKVAVYRALQAALAESGGSPDVLQMLKIHRSDPQLIVQLRFCGRQPCGRFLRAYREGALRAALQRSLAAALAQHSVPLQLELRAGAERLDALLADEERCLSCILAQQPDRLRDEELAELEDALRNLKCGSGARGGDGEVASAPLQPPVPSLSEVKPPPPPPPAQTFLFQGQPVVNRPLSLKDQQTFARSVGLKWRKVGRSLQRGCRALRDPALDSLAYEYEREGLYEQAFQLLRRFVQAEGRRATLQRLVEALEENELTSLAEDLLGLTDPNGGLA
modifications: 35S-labeled
B2: no binding [2].
